assay: yeast display, Sf9 membrane polyspecificity reagent, FACS + sequencing; frameworks hold sequencing errors
Method in brief: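 Nanobodies from a synthetic yeast display library (Saccharomyces cerevisiae BJ5465), induced 36–48 hours with galactose, were stained 1 hour at 4 °C with 10% biotinylated, detergent-solubilized Sf9 membrane reagent, enriched on streptavidin microbeads, then FACS-sorted. Anti-HA (expression) and streptavidin (reagent binding) fluorescence set low and high (top ~1%) gates. Polyreactivity labels come from the gate of origin. Genes were colony-PCR amplified, MiSeq 2 × 250 sequenced and filtered by CDR length.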

| Sequence | polyreactivity (PSR sort gate) |
| --- | --- |
| QVQHVESGGGLVQAGGSLRLSCAASGRTFGQNAMGWYRQAPGKERELVASIRSGGITDYADSVKGRFTISRDNAKNTVYLHMNSLKPEDTAVYYCNAEGVWWSTRYDSWGQGTQVTVSA | low polyreactivity |
| QVQHVESGGGLVQAGGSLRLSCAASGRTFRGNAMGWDRQAPGKERELVAAIRYRGGSTYYADSVKGRFTISRDNAKNTVYLQMNSLKPEDTAVYYCARRYTVHTQHYDYWGQGTQVTVSS | high polyreactivity |
| QVQHVESGGGLVQAGGSLRLSCAASGRTFSANAMGWDRQAPGKEMELVATISSGGRTNYADSVKGRFTISRDNAKNTVYLQMNSLKPEDTAVYYCAKRGPYKRWYGRYDYWGQGTQVTVSS | low polyreactivity |
| QVQHVESGGGLVQAGGSLRLSCAASGRTFYRNAMGWSRQAPGKERELVARINDGAGTYYADSVKGRFTISRDNAKNTVYLQMNSLKPEDTAVYYCAADYGSKLDYGYWGQGTQVTVSS | low polyreactivity |
| QVQHVESGGGLVQAGGSLRLSCAASGRTITLNAMGWYRQAPGKERELVAAITWGAGSTYYADSVKGRFTISRDNAKNTVYLQMNSLKPEDTAVYYCAARFHGAYYRYRSPSMYYWGQGTQVTVSS | high polyreactivity |
| QVQHVESGGGLVQAGGSLRLSCAASGRTSFNYTQGWYRQAPGKERELVAAITSGGDTYYADSVKGRFTISRDNAKNTVYLPMNSLKPEDTAVYYCAVDDLGSEYDYWGQGTQVTVSS | low polyreactivity |
| QVQHVESGGGLVQAGGSLRLSCAASGSIFAYYAMGWYRQAPGKERELVAAISYRGGSTYYADSVKGRFTISRDNAKNTVYLQMNSLKPEDTAVYYCNAGGRRRIFAHSSTGDYWGQGTQVTVSS | high polyreactivity |
| QVQHVESGGGLVQAGGSLRLSCAASGSIFGRYAMGWYRQAPGKERELVAAIRTDGSTYYADSVKGRFTISRDNAKNTVYLQMNSLKPEDTAVYYCAAVSKFQFHYIQYADRQYGYWGQGTQVTVSS | low polyreactivity |
| QVQHVESGGGLVQAGGSLRLSCAASGSIFGRYVMGRYRQAPGKESEFVAAISRSGGRTYYADSVKGRFTISRDNAKNTVYLQMNSLKPEDTAVYYCNAVGAAGPYDYWGQGTQVTVSS | high polyreactivity |
| QVQHVESGGGLVQAGGSLRLSCAASGSIFITYAMGWYRQAPGKERELVAAIRDSGDRTYYADSVKGRFTISRDNAKNTVYLQMNSLKPEDTAVYYCNARWQEPQKYDYWGQGTQVTVSS | low polyreactivity |
| QVQHVESGGGLVQAGGSLRLSCAASGSIFVWYAMGWYRQAHGKERELVAAINWSGGRTYYADSVKGRFTISRDNAKNTVYLQMNSLKPEDTAVYYCAAELRRSDTYNYWGQGTQVTVSS | high polyreactivity |
| QVQHVESGGGLVQAGGSLRLSCAASGSIFYIYAMGWYRQAPGKERELVAAISGSGSTYYADSVKGRFTISRDNAKNTVYLQMNSLKPEDTAVYDCAVELWRFWGAYTYTYDYWGQGTLVTVSS | high polyreactivity |
| QVQHVESGGGLVQAGGSLRLSCAASGSILGVNAMGWYRQAPGKERELVAAISRTGGTTYYADSVKGRFTISRDNAKNTVYLQMHSLKPEDTAVYYCAGDVVFTSVPTGYLGYEYWGQGTQVTVSS | high polyreactivity |
| QVQHVESGGGLVQAGGSLRLSCAASGSTFAFYAMGWYRQAPGKERELVAAITWRVGSTYYADSVKGRFTISRDNAKNTVYLQMNSLKPEDTAVYYCAVDIPFYDSDYCGQGTQVTVSS | low polyreactivity |
| QVQHVESGGGLVQAGGSLRLSCAASGSTFDRYAMAWYRQAPGKERELVAAISRSTGRTNYADSVKGRFTISRDNAKNTVYLQMNSLIPEDTAVYYCAAYRYLRYDYWGQGTQVTVSS | high polyreactivity |
| QVQHVESGGGLVQAGGSLRLSCAASGSTFKFYTMGWYRQAPGKERELVAGSTRAGSTNYADSVKGRFTISRDNAKNTVYLQMNSLKPEDTAVYYCNAYIWIYGCDYWGQGTQVTVSS | high polyreactivity |
| QVQHVESGGGLVQAGGSLRLSCAASGSTFLANTMGWYRQAHGKERELVAAITRRGGSTRYADSVKGRFTISRDNAKNTVYLQMNSLKPEDTAVYYCAAPWFRDTRGYSLYDYWGQGTQVTVSS | high polyreactivity |
| QVQHVESGGGLVQAGGSLRLSCAASGSTFLYYAMGWSRQAPGKERELVARITTRVGRTYYADSVKGRFTISRDNAKNTVYLQMNSLKPEDTAVYYCAAYPDYSYYYWGQGTQVTVSS | high polyreactivity |
| QVQHVESGGGLVQAGGSLRLSCAASGSTFRFYDMGWYRQSPGKERELVATISSSGGTTYYADSVKGRFTISRDNAKNTVYLQMNSLKPEDTAVYYCNKYYGGRYRQYAYGYWGQGTQVTVSS | high polyreactivity |
| QVQHVESGGGLVQAGGSLRLSCAASGSTFRVNAMGWYRPAPGKERELVAGISKSGTSTYYADSVKGRFTISRDNAKNTVYLQMNSLKPEDTAVYYCIKGYYRHPDESDYWGQGTQVTVSS | high polyreactivity |
| QVQHVESGGGLVQAGGSLRLSCAASGSTFYYYAMGWYRQARGKERELVATISRSTARTFYADSVKGRFTISRDNAKITVYLQMNSLKPEDTAVYYCAREYYYRRGFFLRGYWGQGTQVTVSS | high polyreactivity |

| Sequence | polyreactivity (PSR sort gate) |
| --- | --- |
| QVQHVESGGGLVQAGGSLRLSCAASGSTITANAMGWYRQAPGKERELVPAISDTTGNTYYADSVMGRFTISRDNANNTVYLQMNSLKPEDTAVYYCAADLTSYYGGDYWGQGTQVTVSS | low polyreactivity |
| QVQHVESGGGLVQAGGSLRLSCAASGYIFKGNVMGWYRQAPGKERELVAAISRSGGRTYYADSVKGRFTISRDNAKNTVYLQLNSLKPDDTAVFYCFTKHRTKPTRPVDYWGQGTQVTVSS | high polyreactivity |
| QVQHVESGGGLVQAGGSLRLSCAASGYIFPDYAMGWYRLAPGKEREMVAAITSSGGITYYADSVKGRFTISRDNAKNTVYLQMNCLKPEDSAVYYCAKGYPWRYSIMDYWGQGTQVTVSS | low polyreactivity |
| QVQHVESGGGLVQAGGSLRLSCAASGYIFSRYMGWYRQAPGKERQLVAAITRGGVSTYYADSVKGRFTISRDNAKNTVYLQMNSLKPEDTAVYYCATGRPVYYVASYDYDYWGQGTQVTVSS | low polyreactivity |
| QVQHVESGGGLVQAGGSLRLSCAASGYTFPLYAMGWYRQAPGKEREFVAAISKRSGTTYYADSVKGRFTISRDNAKNTVYLQMNSLKPEDTAVYYCNAGYSVYNQRFGYWGQGTQVTVSS | high polyreactivity |
| QVQHVESGGGLVQAGGSLRLSCAASIRIFRYYAMGRSRQGPGKEREVVASSRSASSTYYADSVKGRFTISRDNAKNPVYLQMNSLKAEDTAVYYCNAVSPLSIWSSRDGWYGYWGQGTQVTVSS | high polyreactivity |
| QVQHVESGGGLVQAGGSLRLSCAASMGWYRQAPGKERELVAAINSGGSTNYADSVKGRFTISRDNAKNTVYLQMNSLKPEDTAVYYCAKTFSNLPEYDYWGQGTQVTVSS | low polyreactivity |
| QVQHVESGGGLVQAGGSLRLSCAPSGRIFRYNAMGWYRQAPGKERELVAVISTRGGSTFYADSVKGRFTISRDNAKNTVYFQMNSLKPEDTAVYSCAAYRRHPFGGGYWGQGTQVTVSS | high polyreactivity |
| QVQHVESGGGLVQAGGSLRLSCPASGIIIYQYALGSYRQAPGKERELVAAISSGVNTYYADSVKGRFTISRDNAKNTVYLQMNSLKPEDTAVYYCAARLTFGYLRSKFYYWGQGTQVTVSS | high polyreactivity |
| QVQHVESGGGLVQAGGSLRLSSAASGLTFYHYTMGWYRQAPGKERELVAAITKNGGSTYYADSVKGRFTISRDNAKNTVYLQMNSLKPEDTAVYYCNVGPRRVDRSRAASSDYDYWGQGTQVTVSS | high polyreactivity |
| QVQHVESGGGLVQAGGSLRLSSAAYGFIFGYYTMGWYRQAPGKERELVAAITSGDSTNYADSVKGRFTISRDNAKNTVYLQMNSLKPEDTAVYYCNARGLFTWMDYWGQGTQVTVSS | low polyreactivity |
| QVQHVESGGGLVQAGGSLSLSCAASARTFRRNVMGLYRQAPGKERELVAAISYGANTNYADSVKGRFTISRDNAKNTVYLQMNSLKPEDTAVYYCAAGEGWRSRTFDYWGQGTQVTVSS | low polyreactivity |
| QVQHVESGGGLVQAGGSNRLSCAASAFIFRSNAMGWYRQAAGKEREFVPAISSRGGSTTYADSVKGRFTISRDNAKITVYLQMKSLKPEDTAVYYCARDCYYYPQYRKRYYYWGQGTQVSVSS | high polyreactivity |
| QVQHVESGGGLVQAGRSLRLICAASGSIFDGNAMGWYRQAPGKERELVAAINWPGTRTYYADSVKGRFTISRDNAKNTVYLQMNSLKPEETAVYNCNKKWYPYLEHDYWGLGTQVTVSS | high polyreactivity |
| QVQHVESGGGLVQSGGSLRLSCAASGSIFGKYSMGWYRQAPGKERELVAAISDSGSITYYADSVKGRLTISRDNAMYTFYLQMNSLKPEDTAVYYCAAEVNYYQRFKYEYWGQGTQVTVSS | high polyreactivity |
| QVQHVESGGGVVQGGGSLRLSCAASLSIFYIYAMGWYRQAPGTERELVAAITRSGGSTNYADSVTGPFTFSRDNATNTVYLQMTSLQPEDTAVYYCAAAVGRPYTPTYDYWGQGTKVTVSS | low polyreactivity |
| QVQHVESGGVLVQARGSLRLTCAASGSTFIRNAMGWYRQAPGKERELVAAISASGGRSYYADSVKGRFTFSRDNAKTSVYCQLNSLKSEDTAVYYFAARNARYVHTMVFWGQGTQVTVSS | high polyreactivity |
| QVQHVESGRGLVPAGGSLRLSCAASGSTFNLNAMGWYRQAPGKERELVAAISWRGDSTSYADSVKGRFTISRDNAKNTVYLQMNSLKPEDTAVYFCATAHDSAFYRYWYVPSEYNYWGQGTQVTVSS | low polyreactivity |
| QVQHVESGRGLVQAGGSLRLSCAASGSIFRWYTMGWYRQAPGKERELVAAITSGGTTKYADSVKGRFTISRDNAKNTVYLQMNSLKPEDTAVYYCARRHRYRYDWGQGTQVTVSS | high polyreactivity |
| QVQHVESGRGLVQAGGSLRLSCAASGSIFTSNAMGWYRQAPGIERELVAAISIGGGTYYADSVKGRFTISRDNAKNTVYLQMNSLKPEDTAVYYCAARVGGRRVRFNYWGQGTQVTVSS | high polyreactivity |

— the nanobody polyreactivity screen of Harvey et al. (2022)
